Laboratory results reported in patent CN111484554A (YINGWEIFUSAI BIOTECHNOLOGY CO LTD, dated 2020).

Target: T1, 4-1BB(24-180)-His重组蛋白 (4-1BB胞外段24-180位氨基酸, C端6个His) (UniProt Q07011 24-180)
T1 construct: range 24-180; Human is implied by the human therapeutic context; The monomer was used for immunisation and the ELISA screen; also called 4-1BB-His蛋白; 4-1BB蛋白
Assay: SPR, antibody captured on Protein A chip, 4-1BB protein 6.25-400 nM as analyte

B1: 人源化11B6-hu-a抗体 (antibody, human IgG4 S228P, kappa, V domains shown)
VH: QVQLVQSGAEVKKPGSSVKVSCKASGYTFTSYWINWVRQAPGQGLEWIGNIYPSDSYTNYNQKFQGRVTITADESTSTAYMELSSLRSEDTAVYYCTRESQTGTGYYAMDYWGQGTLVTVSS
VL: DIQMTQSPSSLSASVGDRVTITCQASQDISNYLNWYQQKPGKAPKLLIYYTSRLHSGVPSRFSGSGSGTDFTFTISSLQPEDIATYYCQQGNTLPWTFGGGTKLEIKR
B1 showed a Kd of 5.84 nM.

B2: 人源化11B6-hu-b抗体 (antibody, human IgG4 S228P, kappa, V domains shown)
VH: QVQLVQSGAEVKKPGASVKVSCKASGYTFTSYWINWVRQAPGQGLEWIGNIYPSDSYTNYNQKFQGRVTMTRDTSTSTVYMELSSLRSEDTAVYYCTRESQTGTGYYAMDYWGQGTLVTVSS
VL: DIQMTQSPSSLSASVGDRVTITCRASQDISNYLNWYQQKPGKAPKLLIYYTSRLHSGVPSRFSGSGSGTDFTLTISSLQPEDFATYYCQQGNTLPWTFGQGTKVEIKR
B2 was tested, and the Kd was 9 nM.

B3: 11B6嵌合抗体 (antibody, human IgG4 S228P, kappa, V domains shown)
VH: QVQLQQPGAELVRPGASVKLSCKASGYTFTSYWINWVKQRPGQGLEWIGNIYPSDSYTNYNQKFKDKATLTVDKSSSTAYMQLSSPTSEDSAVYYCTRESQTGTGYYAMDYWGQGTSVTVSS
VL: DIQMTQTTSSLSASLGDRVTISCRASQDISNYLNWYQQKPDGTVKLLIYYTSRLHSGVPSRFSGSGSGTDYSLTISNLEQEDIATYFCQQGNTLPWTFGGGTKLEIKR
notes: Mouse 11B6 variable regions on a human IgG4 constant region and a human kappa constant region; also called 11B6 chimeric antibody
B3 gave a Kd of 3.75 nM.
